Where a chain is given by its changes, count along the chain named.
B1: HC2-LC2 (antibody, V domains shown)
VH: EVQLVESGGGLVQPGGSLRLSCAASGFTFNNYWMSWVRQAPGKGLEWVASISNIGGTIYYPDSVKGRFTISRDSAKNSLYLQMNSLRAEDTAVYYCTRDLRMSDYFDYWGQGTLVTVSS
VL: QFVLTQPHSVSESPGKTVTISCKRSTGNIGSNYVSWYQQRPGSSPTTVIYRDDQRPSGVPDRFSGSIDRSSNSASLTISGLKTEDEADYYCHSYSTGMYIFGGGTKLTVL
B2: HC1-LC1 (antibody, V domains shown)
VH: B1 VH with S74N
VL: B1 VL with Q1N, V3M, K23T
B3: HC2-LC3 (antibody, V domains shown)
VH: B1 VH
VL: B1 VL with V3M, K23T, S44A, G80R
B4: HC1-LC2 (antibody, V domains shown)
VH: B1 VH with S74N
VL: B1 VL
B5: HC1-LC3 (antibody, V domains shown)
VH: B1 VH with S74N
VL: B1 VL with V3M, K23T, S44A, G80R

These binders were tested against Pfs48/45 6C domain (NF54) (Plasmodium falciparum NF54, UniProt V5NSK3).

Binder	binding result
B1	binds
B2	binds
B3	binds
B4	binds
B5	binds

— PMC6203815 (Nature Communications, 2018)
